B1: murine PAPP-A (protein)
chain: RGAEEPSPPSRALYFSGRGEQLRLRADLELPRDAFTLQVWLRAEGGQKSPAVITGLYDKCSYTSRDRGWVMGIHTTSDQGNRDPRYFFSLKTDRARKVTTIDAHRSYLPGQWVHLAATYDGRLMKLYMNGAQVATSAEQVGGIFSPLTQKCKVLMLGGSALNHNFRGHIEHFSLWKVARTQREIVSDMETRGLHTPLPQLLLQENWDNVKRTWSPMKDGNSPQVEFSNAHGFLLDTNLEPPLCGQTLCDNTEVISSYNQLPSFRQPKVVRYRVVNIYDDHHENPTVSWQQIDFQHQQLAEAFQHYNISWELEVLNINSSSLRHRLILANCDISKIGDEKCDPECNHTLTGHDGGDCRQLRYPAFMKKQQNGVCDMDCNYERFNFDGGECCDPDITDVTKTCFDPDSPHRAYLDVNELKNILRLDGSTHLNIFFANSSEEELAGVATWPWDKEALMHLGGIVLNPSFYGIPGHTHTMIHEIGHSLGLYHIFRGISEIQSCSDPCMETEPSFETGDLCNDTNPAPKHKFCGDPGPGNDTCGFHGFFNTPYNNFMSYADDDCTDSFTPNQVSRMHCYLDLVYQSWQPSRKPAPVALAPQVVGHTMDSVMLEWFPPIDGHFFERELGSACDLCLEGRILVQYAFNASSPMPCGPSGHWSPREAEGHPDVEQPCKSSVRTWSPNSAVNPHTVPPACPEPQGCYLELEFRYPLVPESLTIWVTFVSSDWDSSGAVNDIKLLTISGKNISLGPQNVFCDIPLTIRLRDVGEEVYGIQIYTLDEHLEIDAAMLTSTVDSPLCLQCKPLQYKVLRDPPLLEDVASLLHLNRRFMDTDLKLGSVYQYRIITISGNEESEPSPAAIYTHGSGYCGDGVIQKDQGEECDDMNKVNGDGCSLFCKQEVSFNCIDEPSRCYFHDGDGMCEEFEQKTSIKDCGVYTPQGFLDQWASNASVSHQDQQCPGWVVIGQPAASQVCRTKVIDLSEGISQHAWYPCTITYPYYHLPQTTFWLQTYFSQPMVAAAVIIHLVTDGTYYGDQKQETISVQLLDTKDQSHDLGLHVLSCRNNPLIIPVVHDLSQPFYHSQAVHVSFSSPLVAISGVALRSFDNFDPVTLSSCQRGETYSPAEQSCVHFACQAADCPELAVGNASLNCSSNHHYHGAQCTVSCQTGYVLQIQRDDELIKSQVGPSITVTCTEGKWNKQVACEPVDCGIPDHHHVYAASFSCPEGTTFGRRCSFQCRHPAQLKGNNSFLTCMEDGLWSFPEALCELMCLAPPPVPNADLQTARCRENKHKVGSFCKYKCKPGYHVPGSSRKSKKRAFKTQCTQDGSWQEGTCVPVTCDPPPPKFHGLYQCTNGFQFNSECRIKCEDSDASQGRGSNIIHCRKDGTWSGSFHVCREMQGQCSAPNQLNSNLKLQCPDGYAIGSECAISCLDHNSESIILPVNLTVRDIPHWMNPTRVQRIVCTAGLQWYPHPALIHCVKGCEPFMGDNYCDAINNRAFCNYDGGDCCTSTVKTKKVTPFPMSCDLQNDCACRDPEAQEHNRKDLRGYSHG
B2: murine PAPP-A2 (protein)
chain: QNGGGASLRRVETFNSQGGLPVLYFTGKRERLLLRPEVLAEIPREAFTVEAWVRPEGGQSNPAIIAGVFDNCSHTVNDKGWALGIRSGKDKGWRDARFFFSLRTDRMKKATIVTGHSRYQPGMWTHVAATYDGQHTALYVDGTRVASSRDQFGPLNSPFMASCRSLILGGDSSEDGHYFRGYLGTLVIWSTALSQTHLQHSPLHPSAADELTTLILTATFDPLMEQWAPFRDDLYPRLEVLQDSESQPEILSPLQPPPCGQTACDNVELISQYNKHGPLRREKVIRYQVVNIYDDEGLHPIVSDHQIRRQHEALNQAFSRYNISWQLSVHRVHNSTLRHRVVLVNCEPSKIGNDHCDPECEHPLTGFDGGDCRLQGRCYSWNRRDGLCHVECNNMLNDFDDGDCCDPEVTDVRKTCFDPDSPKRAYMSVKELKEALQLNSTHFLNVYFASSVREDLAGSATWPWDKEALSHLGGVVLNPTYYGMLGHTNIMIHEVGHVLGLYHVFKGVSERESCDDPCRETVPSMETGDLCADTAPTPKSKLCRDPEPANDTCGFTLFPGAPFNNYMSYTDDECTDNFTPNQVARMHCYLDLVYQQWSESQKPTPIPIPPMVIGQTHKSLTIHWLPPISGVVYDRAPDSMCSACTEDGTFRQYVYKASSGRVCDSSGYWTPEEAVGPPDVDQPCEPSLQAWSPELHLNHMNMTVPCPAEGCSLELLFQYPVQADTLTLWVTYLSMNSSKAFFDIEILLEHKKSMHLGPLNTFCDIPLTIKLHMDEKVMGAKVYTFDERMEIDAALLTSRPNSSLCSGCKPMSYQVLREPPFSSGLPMVVTHPHRKFTDTEVIPGQMYQYQVQAEAVGELGEASPPLSHIHGGPYCGDGKVERSIGEMCDDGDLLNGDGCSRACELEEGFNCAGEPSLCYRYEGDGVCEDFEKESIITDCGLHTPEGYLDQWASQAYSYHEDKEKCPVSLVTGEPHSMICTSWHPDSSPYHSFPGWFPCVFSLKKDQDAGSEQAKDSLQKDNEIWLEVCFNRPGVAVAIYIFLASDGVTPGEHQQATVTLYLIDVSGSNHSLGTYGLSCQQNPLVINVSHHVNVYPQHTSSMLLNFSSPLVGISAVALRTSSQTSSSAPSNCIPEQNYEGKSCAQRPCGEQGRCAPLLLDHTDMVNCTSSSPGHMECAITCQRGYVLQTSSGQYLRNMQKEILLTCSSGHWDKDVICKRLDCGVPDSSLVNYANFSCLEGTDFLKQCSISCVPPAKLQGLNPWLTCLEDGLWSLPEVYCKLECEAPPVIPNANLLLPHFLEGNHDVGTICKYECKPGYYVKETSGSQGKNKFLKIQCLDDGSWEQGSCVPVVCEPPPPVFEGMYECTDGFKLDSQCVLNCNQETEGIPILCTKEGLWTQEFKLCENLQGECPPPTSELNSVEYKCGQGYGIGAVCSPSCVIPPSDPVILPENVTTDTLEHWMEPVKVQSIVCTGRRQWHPDPSLVHCIQSCEPFQADGWCDTINNRAYCNYDGGDCCSSTLSSKKVIPFAADCDLDECTCRDPKAEENQ

What was measured:
[1] = molecular target: STC2(C120A), human stanniocalcin 2 with cysteine 120 replaced by alanine, C-terminally myc-his-tagged
[2] = molecular target: recombinant human stanniocalcin 1, C-terminally myc-his-tagged
[3] = molecular target: untagged human STC2 (transgene-derived STC2 of transgenic mice; endogenous STC2 of 293T cells)
[4] = molecular target: recombinant human stanniocalcin 2, C-terminally myc-his-tagged

Row | Protein | proteolytic activity of murine PAPP-A towards radiolabeled IGFBP-4 [1] | proteolytic activity of murine PAPP-A towards radiolabeled IGFBP-4 [2] | proteolytic activity towards IGFBP-4 in conditioned media of STC2 transgenic mouse embryonic fibroblasts [3] | proteolytic activity of murine PAPP-A towards radiolabeled IGFBP-4 [4] | proteolytic activity of murine PAPP-A2 towards radiolabeled IGFBP-5 [1] | proteolytic activity of murine PAPP-A2 towards radiolabeled IGFBP-5 [2] | proteolytic activity of murine PAPP-A2 towards radiolabeled IGFBP-5 [4]
1 | B1 | Murine PAPP-A and PAPP-A2 are inhibited by STC1 and STC2, but not STC2(C120A) | Murine PAPP-A and PAPP-A2 are inhibited by STC1 and STC2, but not STC2(C120A) | conditioned media from MEFs derived from STC2 transgenic mice showed a marked reduction in PAPP-A activity | Murine PAPP-A and PAPP-A2 are inhibited by STC1 and STC2, but not STC2(C120A) |  |  | 
2 | B2 |  |  |  |  | Murine PAPP-A and PAPP-A2 are inhibited by STC1 and STC2, but not STC2(C120A) | Murine PAPP-A and PAPP-A2 are inhibited by STC1 and STC2, but not STC2(C120A) | Murine PAPP-A and PAPP-A2 are inhibited by STC1 and STC2, but not STC2(C120A)
